The values below come from a protein production outcome set (Wang et al. 2014).

A short description of this data set: label from the status in PepcDB records.

As for “MKRRLLCALLASTLAQPLTVRADLPDLGEISDASLSLSDEARIGRDALRAMREAGDVVDDPEVNAYLNDVGGRLAAAAAVPGVRFTYFCVADAGINAFAMPGGYVGINIGLMLASQSEGELAAVLGHETAHVAQRHIARMQAANSAASPLLLLGTIVAAALAAKAGSGDGAMGAVSAGMGLSISRQLAFSRDFEREADRVGMQYMSAAGFDVRNMAAFFQRLEQASRYSDNTAYAFLRTHPVTLERISEAQNRALDYPVRMRADSVDYLLVREKLRVLTLSPEEAVSHYSSALQRGLYLNEGANWYGLARAKLLQHDRAGASEALAKARAKLPDNPMLYGLEVEIARDGRDWAAAARAARNGLSAFPRSVSLQLAQLDVALDGGDRKAAQAQLRQLLDSRRDDPALYRREAKLYADKDPLRYHAALGNAFYYEQRYGAALEQYQLAGKAKGDDFYLRSMLEARLREVEKLAKEERKAARNLEHHHHHH”, the protein production entry is reported as “not failed”.

As to “MKRSIAPLLVCPACLPKERPLELTATAEADGDITAGHLSCKGCRRRFPIRDGIAVLLPDPDTGPSGGQWKYEEQGTLATYLWSHFADLAGDPEAGDAYASWASALAGNAETSLDAGCAVGRLTFELGQRSGLAVGFDLSLTFIRAARQLARERQIRFSLPREGNLRDEFRLTLPDCWRTDEVEFVVADALAIPFARETFDRTASLNLIDRVSYPLAHLYEMNRVARLSGASFLLSDPFSWSTANAPEEKWLGGTESGPYSGRGMDNVKAILGGKEAIIAPPWTVAREGSVWWKIRSHRNHFELIRSEFLVAERLEHHHHHH”, the protein production result is given as “failed”.

In the case of “MKRSLLACAMSCMMLTVSAHSDFDVRNVDSQFHVPEIGGGVGLIDQQKERQIGEKVFREIQKQMPVVHDPWLQEQYSQIFLRVLAQTSITQPVGLVIIKDPQINAFAVPGGLFALNTGLIANARNIDEVAGVMAHEVAHVTQRHYSRSQEAFKGQGLLALAGILVGAAVATTSNADVGSAVMLGTQAALMDRQLTYSRNQEREADRIGMQYMYAAGYNPQSMADFFETMQRSRVGSSFMPDFWMTHPLTTERMSEARLRANQLPKVETKLYDPNFQLLKWYTLAVSDPSSEKILENVVKQGNKEAQLALGAYYVGQGDFVKAQKQLDDIKSQFNENTLYCLIQTNIYLGQNELDQAYSSIVNIQRAMPESRALAYKLAEVMILQGKAGDTLQLIQPFVNRNPRDLEGWQLMQQASSIDRISPVQTVNTLRYRAEVQFWSGNEENAIKSLLHAQRLAKGNESLSARIDSRLKQMQSDYTMKI”, the protein production result is on record as “failed”.

Regarding “MKRVFVFQDFKSQKFWSIDVRGTDVIVNYGKLGTDGQTQVKNFSSAGEAEKAAGKLIAEKTKKGYVETLEEVAKEMKVEAKKYALSYDEAEEGVNLMDKILKDKKLPSLKQITIGCWGYEGEDCSDIADGIVENKEKFAHFEGLFWGDIDFEEQEISWIEQVDLSPVLDAMPLLNNLKIKGTNNLSIGKKPRPNLKSLEIISGGLPDSVVEDILGSDLPNLEKLVLYVGVEDYGFDGDMNVFRPLFSKDRFPNLKWLGIVDAEEQNVVVEMFLESDILPQLETMDISAGVLTDEGARLLLDHVDKIKHLKFINMKYNYLSDEMKKELQKSLPMKIDVSDSQEYDDDYSYPMITELEHHHHHH”, the protein production result was “not failed”.

On to “MKRVNQNLYQLLRRIYWRLPLPEETKELLVGFARRFLRGMKKALAEPVTTASSASVSREKILQEYANQILAIPRKSGNEYVEISSSSYQRKEGDAKILAYYLPQFHPTKENDMWWGKGVTEWNNVSRAMPQYVGHYQPRLPGELGYYDLRILDNMRRQVELAQMYGIYGFCFYYYWFDGKRLLDKPLDMFLEAKTIDFPFSLCWANESWTRRFDGSCGEILVKQSETVESYIAFINSVVPYMRDSRYIRMNGKPIFTIYRPSFIPECASTITAWREHCVKAGIGDIYIIGIKEHTWDVNLIELGFDAQSEFHPGTLFKHCVDISSQINYMQDFGGIVLDYRDIVEHKKYFLYNHPKLHRAAMPMWDNSARRDNKGMIFEGASPDLYERWLTDILLEAKNREDLEDHYIFINAWNEWGEGAYLEPDKKYGYAYLNATRQAIEGVRS”, for which the protein production result was “failed”.

Regarding “MKRYIYLFVSVFTLVMASCQQEETSNGKTGFLQFSVEKNTSTILVPATRAEELPIALQVVDRAGTVVKETDDWHNWTSTPLELPLGSYTINAFSKGVDVGTAGFDEPYYWGQSEVTVVPKVNQSVNIECRLANVKVTVNYSADVKKYFSKLNCSVGNSSGKLVFGKDETRSGYFAVDKLNISLALTNTDGRSFVFESEPITDVKERQHYRINYTMKANGAIGGVSVTLDPSTKEYNVNIAIPKESNPSVNVWSDFADVTLPLPDGVVTKECKYRISGTEDWNTVSNVEQADGKLVATITGLIPGTEYDFCFAINGVNGKITTATTELQKQLENGSFDEWNQNGKTWFPGTAAEASAKNSYWDTGNVGAATMSKNPSIGESNDVHTVGGKSAKLSSQFVGMFGIGKFAAGNIYIGRYMETYTSPMGARIRFGREFTSRPTQLKGWYKYTRGTSIDRGDHNVEELKNSGGDKCAIYIALTDNEGLVDDNGVKTAYEVNNNKEGSPTRYTVDLSEANKDVIAYGSITDEESKGSFDESGNVVWKQFTIDLKYRDLTRKPKYIIVVASASKYGDFFTGSESSVMLIDDFELVYGTPVTAN”, the protein production result is given as “failed”.

“MKRYPRDMRGHGPTPPDAAWPGGARIAVSIVLNYEEGGENCLLHGDAQSEAFLSDIAGAQPWPGQRHWNMESIYDYGARAGFWRLHRLFTGLNIPVTVYGVATALARSPEQVAAMKSAGWEIASHGLKWVEHRDMPEEEERRQIAEAIRLHAEVVGERPRGWYTGRCSVNTVRLTAEEGGFDWISDTYDDDQPYWLETGTRDQLVIPYTLEANDMRFATAPGYIEGEQFFTYLRDSFDTLYAEGCAGQAKMFSIGLHCRLIGRPGKIAGLKRFLDYARTHERVWFPCRGDIARHWHETHPHRRRPRPSRMDRESFVAHFGGIYEHSPWIAERAFELELGPAHDSPAGLANALARIFRSATPAERLSVLKAHPDLAGKLAQARRLTASSSFEQSSAGLDALTDAERAEFATLNADYVAKHGFPFIIAVRDHDKAGILAAFETRLAHDSATEFATACRQVERIAELRLQDMLKLEHHHHHH”: the protein production result is “failed”.

In the case of “MKSAPAVISVAFVLGLLTWLLLHGLNINSARYDSQLRALGDFTRFERGMTREVLTARAGLSRNYDALVHMVNAYDDALTRLRDTAGLDAEQTRVIDVLSARADRQESLIERFKSRNALLQNSFAYFGLFSDRLAASESRPVVTAASALAAAMLRLTLDTSDAAARQVEDRLEELAQLQAPPAETDSVHALLLHGQMLHDLLPDIDTILKTLVAESNNREQDAMLAVILKRQLAARASARKTRLLQYITSLLLLSGIIYFGMLLRKRAMALRRRAAFEHVIANISMLFINSSNDGIDADVEMALRQLAGCIGADRAYFACVVGTTMHTYRWSRDGIAFEPGWPERVLSLAPRLDGGEDGIVYIPRMNASHPHDAMLTEAGVSGWLCIMAAYGSRDGILGFDAVRGGALTYWSEVSLFRMAFDAIGNAIRRARLEGEKERLQASLQQARRMETIGTFASGIAHNFNNIVGAILGHAEMADARVAPGSRPAASLAEIRRAGERARELVEQILGFGRRGEGRRERVCLRTLVDETRSLLAASLPSHVTFEVDETADIAIVTGEPAQLQQVILNLCNNAAQAMKEPGRIELRIKVHDLVKPLSIGRSEVGPGRFTVISVADPGPGMDEATLERIFEPFFTTRPDGNGLGLATVREIVEQHGGAVAVQSRPDAGTRFDIWLPSGEPVEPQPAQHGSDPAFLGAGETVLVIDTDRRRLLRYEEILAALGYEPVGFTGLAEAIAACRAAHARFDAALVCHLPGGSSLDLAAALHDAAPALPIILAAPSTRDLAMPSLKTSGITELVHHPLASAELASALARSLVSSATSGRLRRAAGAS”, the protein production entry is listed as “failed”.

For the sequence “MKSGIGVGLKKEHLKIQINNSGVLTITGGCPVDQTKTIRFMKETKVAKDCKRNEIRAKFSKGVLYVTMPKTIPIAAGLSVSLKGATPQHQTPKTDEGMRNVANCSSEFYSKFGSLKQRLWRKTVVEGVAAVVVVAAAVLGVVKAYQYFMASPV”, the protein production result is on record as “failed”.

With “MKSHKMMGGGISMHYITACLKIISDKDLNEIMKEFKKLEEETNKEEGCITFHAYPLEPSERKIMLWEIWENEEAVKIHFTKKHTIDVQKQELTEVEWLMKSNVND”, the protein production result was “not failed”.

As to “MKSIRRGDGLNVVPFIDIMLVLLAIVLSISTFIAQGKIKVSLPNAKNAEKSQPNDQKVVVISVDEHDNIFVDDKPMNLEALSAVVKQTDPKTLIDLKSDKSSRFETFISIMDILKEHNHENFSISTQAQ”, the protein production entry is “failed”.

In the case of “MKSITQASFMKGIMFTFTIAIISYILAKFPILHTIGALAIAIIFAMIYRQVIGYPEHIRPGITFASKRLLKFAIILYGLKLNMGDILGKGWKLLLIDIIVIIFSISLTLLLNQIIKGNKDISILLGIGTGVCGAAAIAATAPILKSKEKDIAISVGIIALVGTIFALIYTAIEAIFNIPTITYGAWTGISLHEIAQVVLAAGIGGSEAMTFALLGKLGRVFLLIPLSIVLILYMRYKSHSSQVQQKIDIPYFLIGFIIMACINTFVPIPSLLMNIINVITTLCMLMAMVALGLNIVLKEVISKALKPFIVICITSICLSGVTLLVTSIMFK”, the protein production entry is “failed”.

For “MKSITTDELKNKLLESKPVQIVDVRTDEETAMGYIPNAKLIPMDTIPDNLNSFNKNEIYYIVCAGGVRSAKVVEYLEANGIDAVNVEGGMHAWGDEGLEIKSI”, the protein production entry is “failed”.

In the case of “MKSIYYLSADDLFQMNTFLIQTYSPAEQIGIKDRNALEMASNQPAQFVFDVDLYPTIEEKAAILMINIATKHCFYNANKRTAVMATDLFLQLNGYDFQLDTQEGVDLLVFIATYRSDFDQLKNDVSKVIRAKLNHTSSHLEHHHHHH”, the protein production entry is “not failed”.

Turning to “MKSLEEKTIAKEQIFSGKVIDLYVEDVELPNGKASKREIVKHPGAVAVLAVTDEGKIIMVKQFRKPLERTIVEIPAGKLEKGEEPEYTALRELEEETGYTAKKLTKITAFYTSPGFADEIVHVFLAEELSVLEEKRELDEDEFVEVMEVTLEDALKLVESREVYDAKTAYAIQYLQLKEALQAQK”, the protein production result is on record as “failed”.

Turning to “MKSLHRPDLYSWSTFNPARNIDFNGFAWIRPEGNILIDPVALSNHDWKHLESLGGVVWIVLTNSDHVRSAKEIADQTYTKIAGPVAEKENFPIYCDRWLSDGDELVPGLKVMELQGSKTPGELALLLEETTLITGDLVRAYRAGGLEILPDEKLMNKQKVVASVRRLAALEKVEAVLVGDGWSVFRDGRDRLKELVATLA”, the protein production entry is reported as “not failed”.

As to “MKSLWSDADAAECVERLGLLGLPPELGLRTYSARLLGSNPKLVLHGGGNTSVKLNINDLFGNPVQVMCIKGSGQDLATITASGHPAVRLAPLQQLKVLDHLSDEDMVNILRTNLLDCRAPTPSVEALLHAFVDRPVIDHTHAVAAMVIADQPDGDRLCRYIYGERVLWIPYVMSGFALSLAVERAFRAYPDAEGMLLGKHGLCTFGESAKASYERMITFVTLAENFIESRRAIYSPPVITPPAKPNNLADMAHIAPYLRAAFARSSAISEKKHWIFDLRTDPKSLAFSSGLGTSDIAQRGVATPDHVIRMKGRPVVLDAPDLNNLGDWAAQTQTKIAAFVERYQHYFHRNNARFERGKIALDALPRAIVIPYLGVVGAGRTAEDAAINADIIESWLDVVTDATVCGDYEPIGEADEFDMEYWSLEQAKIDKASVKPLQGQIVVVTGAGGGIGAAIAKEFSLLGAELAVLDIDSESAKNVAAQLGPHALALQCDVTETASVQAAFETIATRFGGVDIVVSNAGVALSGAIAELPEATLRTSFEVNFFAHQRVAQQAVSIMKKQGIGGVLLFNISKQAINPGINFGAYGTSKAALLSLVRQYALEQGQDSIRVNAVNADRIRSGLLDDEMISLRARARGLSEEKYMAGNLLGQEVTAQDVAKAFVVSAMLDKSTGNVITVDGGNVAAMLR”, the protein production entry is “failed”.

For “MKSRIIVRTSFDAAHAVKVGDHWEDVHGHTFFLEVAIEGEIKNGYVMDFLELRKIVEEITKELDHRNLNNIFENPTTENIALWIGERIRDKLPPYVKLKRVVLWEGKDNGVELEW”, the protein production entry was “not failed”.
